For experiment [1], the target named is T1, extracellular region of human TIGIT fused to FLAG and GPI (hTIGIT-GPI), on the surface of NS0 cells (human).
T1 construct: The GPI signal is processed when the anchor is attached; also called NS0-hTIGIT cells
T1 chain: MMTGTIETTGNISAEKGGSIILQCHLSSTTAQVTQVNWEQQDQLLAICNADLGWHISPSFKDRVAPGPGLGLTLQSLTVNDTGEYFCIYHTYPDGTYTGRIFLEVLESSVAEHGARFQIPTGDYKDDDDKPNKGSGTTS
As to the kind of experiment: flow cytometry, competition with hCD155-Fc-FITC (125 ng/ml) for NS0-hTIGIT cells. The procedure:
The activity of HuTIG1-IgG1.AA to block the interaction between human TIGIT and human CD155 was analyzed by flow cytometry using NS0-hTIGIT cells. […] After washing with FACS Buffer, NS0-hTIGIT cells were subjected to flow cytometry using a FACScan flow cytometer (BD Biosciences, San Jose, Calif.). To examine the binding of hCD155-Fc-FITC on the cells, MCF was obtained at each antibody concentration. […] The half maximal inhibitory concentration (IC₅₀) of HuTIG1-IgG1.AA to block the TIGIT-CD155 interaction was 67 ng/ml.
(In general: A flow cytometer gives signals particle by particle.)

The target in experiment [2] is T2, HA-tagged human TIGIT with mutation Q35A, on CHO-K1 cells (human, UniProt Q495A1 22-244).
T2 construct: Built as for m17
T2 sequence: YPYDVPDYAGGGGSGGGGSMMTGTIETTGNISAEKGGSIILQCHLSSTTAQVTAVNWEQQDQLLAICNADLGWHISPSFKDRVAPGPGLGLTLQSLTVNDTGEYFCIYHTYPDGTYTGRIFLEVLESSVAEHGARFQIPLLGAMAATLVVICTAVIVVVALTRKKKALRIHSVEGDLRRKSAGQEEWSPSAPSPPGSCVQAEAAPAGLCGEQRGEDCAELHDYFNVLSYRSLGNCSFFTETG
As to the kind of experiment: flow cytometry on CHO-K1 cells transiently expressing HA-tagged TIGIT mutant; Q35A mutant. On the procedure:
For flow cytometry analysis of the anti-hTIGIT antibody binding epitope, HA-tagged human TIGIT proteins with or without single amino acid mutation were transiently transfected into CHO-K1 cells. After 24 hr, transfected cells were suspended in HBSS buffer (Thermo Fisher Scientific, Cat#14175095), and incubated with HuTIG1-IgG1.AA antibody at varying concentrations in 50 μL volume. After 1 hr incubation at 4° C., cells were washed and a second incubation with 50 μL Alexa488 conjugated anti-human IgG(H+L) secondary antibody (Thermo Fisher Scientific, Cat#A-11013) was performed to detect cells bound by antibody. Cells were incubated with an anti-HA antibody (Sigma, Cat# H7411) as a positive control, and non-transfected CHO-K1 cells were used as a negative control. The cells were analyzed on an Attune NxT Cytometer (Thermo Fisher Scientific) and the data were processed using FlowJo software. For each mutant, the saturating antibody binding MFI (mean fluorescence intensity) were normalized to 100% POC (percent of control), and no primary antibody binding control MFI were normalized to 0% POC. Data were then fit to a four parameter non-linear sigmoidal curve using GraphPad Prism 7 curve fitting using following formula: Y=Bottom+(Top−Bottom)/(1+10^{((Log EC}^₅₀^{-X)*HillSlope)}). […]

The target of another experiment is T3, T96A.
T3 construct: also called HA-tagged human TIGIT with mutation T96A, on CHO-K1 cells
T3 single chain: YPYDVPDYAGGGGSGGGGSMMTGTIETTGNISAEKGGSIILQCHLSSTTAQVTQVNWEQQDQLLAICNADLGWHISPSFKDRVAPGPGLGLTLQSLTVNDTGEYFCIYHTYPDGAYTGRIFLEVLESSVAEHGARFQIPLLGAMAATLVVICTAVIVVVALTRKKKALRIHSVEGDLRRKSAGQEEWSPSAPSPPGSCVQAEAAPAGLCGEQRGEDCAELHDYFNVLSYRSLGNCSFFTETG
As to the kind of experiment: flow cytometry titration on CHO-K1 cells transiently expressing the HA-tagged TIGIT mutant, Alexa488 anti-human IgG detection, four-parameter fit of percent of control, nM is from the concentration axis and paragraph 252. The procedure: (§1) For flow cytometry analysis of the anti-hTIGIT antibody binding epitope, HA-tagged human TIGIT proteins with or without single amino acid mutation were transiently transfected into CHO-K1 cells. After 24 hr, transfected cells were suspended in HBSS buffer (Thermo Fisher Scientific, Cat#14175095), and incubated with HuTIG1-IgG1.AA antibody at varying concentrations in 50 μL volume. After 1 hr incubation at 4° C., cells were washed and a second incubation with 50 μL Alexa488 conjugated anti-human IgG(H+L) secondary antibody (Thermo Fisher Scientific, Cat#A-11013) was performed to detect cells bound by antibody. Cells were incubated with an anti-HA antibody (Sigma, Cat# H7411) as a positive control, and non-transfected CHO-K1 cells were used as a negative control. The cells were analyzed on an Attune NxT Cytometer (Thermo Fisher Scientific) and the data were processed using FlowJo software. For each mutant, the saturating antibody binding MFI (mean fluorescence intensity) were normalized to 100% POC (percent of control), and no primary antibody binding control MFI were normalized to 0% POC. Data were then fit to a four parameter non-linear sigmoidal curve using GraphPad Prism 7 curve fitting using following formula: Y=Bottom+(Top−Bottom)/(1+10^{((Log EC}^₅₀^{-X)*HillSlope)}).
(§2) All of these residues co-locate to one discrete region on the front ([…] structure of the TIGIT IgV extracellular domain (FIG. 28).

The target of a further experiment is T4, I47A.
T4 construct: also called HA-tagged human TIGIT with mutation I47A, on CHO-K1 cells
T4 single chain: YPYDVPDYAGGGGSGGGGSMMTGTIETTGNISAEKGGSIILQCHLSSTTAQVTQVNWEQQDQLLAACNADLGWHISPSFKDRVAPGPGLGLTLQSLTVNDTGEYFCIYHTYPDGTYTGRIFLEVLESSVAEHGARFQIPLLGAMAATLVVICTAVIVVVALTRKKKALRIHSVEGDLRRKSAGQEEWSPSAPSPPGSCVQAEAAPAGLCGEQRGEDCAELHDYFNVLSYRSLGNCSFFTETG
The experiment is described as above. On the procedure:
as §1, §2

The next experiment concerns the target T5, L52A.
T5 construct: also called HA-tagged human TIGIT with mutation L52A, on CHO-K1 cells
T5 single chain: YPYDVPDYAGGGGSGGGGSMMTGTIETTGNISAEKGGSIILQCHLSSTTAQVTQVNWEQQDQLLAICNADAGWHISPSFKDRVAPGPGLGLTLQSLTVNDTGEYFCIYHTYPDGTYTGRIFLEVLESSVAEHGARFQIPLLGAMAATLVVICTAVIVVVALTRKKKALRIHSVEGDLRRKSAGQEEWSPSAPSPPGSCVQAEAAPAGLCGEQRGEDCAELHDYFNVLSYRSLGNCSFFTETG
The description is as above. The procedure: as §1, §2

In experiment [3] the target is T6, HA-tagged human TIGIT with mutation D51A, on CHO-K1 cells (human, UniProt Q495A1 22-244).
T6 construct: Built as for m17
T6 sequence: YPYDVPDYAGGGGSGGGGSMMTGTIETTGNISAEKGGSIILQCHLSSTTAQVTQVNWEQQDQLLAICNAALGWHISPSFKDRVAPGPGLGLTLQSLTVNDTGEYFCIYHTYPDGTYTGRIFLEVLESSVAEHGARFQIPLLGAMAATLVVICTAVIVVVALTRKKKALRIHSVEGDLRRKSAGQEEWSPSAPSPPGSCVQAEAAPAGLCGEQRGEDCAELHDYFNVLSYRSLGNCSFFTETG
The experiment is described as above. On the procedure:
as §1, §2

B1: HuTIG1-IgG1.AA (humanized IgG1/kappa form of TIG1, L234A/L235A) (antibody)
heavy: not shown
light: DIQMTQSPSSLSASVGDRVTITCRASKSISKYLAWYQQKPGKAPKLLIYSGSTLQSGVPSRFSGSGSGTDFTLTISSLQPEDFATYYCQQHNEYPWTFGGGTKVEIKRTVAAPSVFIFPPSDEQLKSGTASVVCLLNNFYPREAKVQWKVDNALQSGNSQESVTEQDSKDSTYSLSSTLTLSKADYEKHKVYACEVTHQGLSSPVTKSFNRGEC
notes: Mature full chains; also called humanized TIG1
Turning to B1, the IC50 in experiment [1] was determined as 0.067 µg/mL. For the same molecule, the EC50 in experiment [2] is 176 nM; with T96A, 1.36 nM; with I47A it was 1.27 nM; with L52A, 2.67 nM; in experiment [3] it was 30.5 nM.

What is called IC50 is the concentration at which inhibition is half-maximal. The low end stands for greater potency in that assay, the high end for weaker potency in that assay. The term EC50 denotes the concentration at which the effect is half-maximal. The low end stands for higher potency in that assay, the high end for lower potency in that assay.

These data come from US20170281764A1 (JN BIOSCIENCES, published 2017).
